Data from patent US20200283482A1, “BICYCLIC PEPTIDE LIGAND PRR-A CONJUGATES AND USES THEREOF” (BicycleRD Limited, priority 2017, published 2020).
Starred links: 1 amine or outer side, 2 acyl side, 3 side chain; linkers in the order of their positions; H or OH if unused. Positions of bridges follow the written chain, without caps; N, C: chain ends. Non-standard residues stand in square brackets, D forms with d. Residues, ends and D or L forms follow the SMILES beside them. *: point of attachment. X12 = CCOCc1nc2c(NC(=O)OCCN(C)C(=O)OCc3ccc(NC(=O)[C@H](CCCNC(N)=O)NC(=O)[C@@H](NC(=O)Cn4cc(CCC(=O)*)nn4)C(C)C)cc3)nc3ccccc3c2n1CC(C)(C)O; X7 = CCOCc1nc2c(NC(=O)CCCNC(=O)OCc3ccc(NC(=O)[C@H](CCCNC(N)=O)NC(=O)[C@@H](NC(=O)Cn4cc(CCC(=O)*)nn4)C(C)C)cc3)nc3ccccc3c2n1CC(C)(C)O; X6 = CCN(Cc1nc2c(N)nc3ccccc3c2n1CC(C)(C)O)C(=O)OCc1ccc(NC(=O)[C@H](CCCNC(N)=O)NC(=O)[C@@H](NC(=O)Cn2cc(CCC(=O)*)nn2)C(C)C)cc1; X4 = CCN(Cc1nc2c(N)nc3ccccc3c2n1CC(C)(C)O)C(=O)OCc1ccc(NC(=O)[C@H](CCCNC(N)=O)NC(=O)C2(C(=O)*)CCC2)cc1; X8 = CCOCc1nc2c(NC(=O)OCc3ccc(NC(=O)[C@H](CCCNC(N)=O)NC(=O)C4(C(=O)*)CCC4)cc3)nc3ccccc3c2n1CC(C)(C)O; X10 = CCCOc1nc(NC(=O)OCCSSC(C)CCC(=O)*)c2[nH]c(=O)n(Cc3ccc(OCCN(C)C)nc3)c2n1; 1Nal = N[C@@H](Cc1cccc2ccccc12)C(=O)O; TBMB = c1c(C[*:1])cc(C[*:3])cc1C[*:2]; X5 = O=C(CCc1cn(CCCN[*:1])nn1)[*:2]; Tle = CC(C)(C)[C@H](N)C(=O)O; βAla = NCCC(=O)O; Sar = CNCC(=O)O

Columns and labels:
Plasma stability, dog = assay type: in vitro ADME; details: pH 7.4; dog plasma, 2 μM, 37° C.; read-out: T1/2 (dog)
Procedure: (§1) The pooled frozen mouse, rat, dog, monkey or human plasma is thawed in a water bath at 37° C. prior to experiment. Plasma is centrifuged at 4000 rpm for 5 min and the clots are removed if any. […] For positive controls, 100 μM intermediate solution is prepared by diluting 20 μL of the stock solution with 180 μL 45% MeOH/H2O. […] For compounds I-7 to […]-17, […]-22, and […]-33, at each time point (0, 1, 2, 4, 6 and 24 hr), reactions were stopped by removing the plates from water bath and 200 μL 20 mM NH4OAC mix well first and then adding 800 μL of ice-cold stop solution (200 ng/mL Labetalol, 200 ng/mL Tolbutamide, 500 ng/mL N6-Ben and 40 mM DBAA in 100% Methanol). […] Sample plates were vortexed immediately on a plate shaker at 800 rpm for 10 min and then centrifuged at 4,000 rpm for 10 min. An aliquot of supernatant (200 μL) is transferred from each well before submitting to LC-MS/MS analysis. The percentage of test compound remaining at the individual time points relative to the 0 hour sample is calculated using following equation: Percent Remaining=100×(PAR at appointed incubation time/PAR at T0 time) where PAR is the peak area ratio of analyte versus internal standard (IS).

Plasma stability, human = assay type: in vitro ADME; details: pH 7.4
Procedure: as §1

Plasma stability, cyno = assay type: in vitro ADME; details: cynomolgus monkey, pH 7.4
Procedure: as §1

Plasma stability, mouse = assay type: in vitro ADME; details: pH 7.4
Procedure: as §1

Plasma stability, rat = assay type: in vitro ADME; details: pH 7.4
Procedure: as §1

Blood stability, mouse = assay type: in vitro ADME, CD-1 mouse; details: male, CD-1, mouse
Procedure: CD-1 mouse blood (n≥2, male, fasted overnight) is collected from animals housed at an internal facility. (EDTA-K2 is used as anticoagulant)
The test compounds and positive control stock solutions are prepared to 10 mM in DMSO or ultrapure water. Control compounds bisacodyl, enalapril and propantheline known to be metabolised by blood are also incubated alongside each batch of test compounds I-7, I-22, I-24, I-25, I-27, and I-29 to I-33. The dosing solutions of test compounds and controls are prepared by diluting the stock solution with 45% MeOH/H2O to achieve 100 uM. Test compound solutions (final incubation concentration=2 μM) are incubated with blood (final DMSO concentration≤1%) at six different time points (0, 1, 2, 4, 6 and 24 hours) in duplicate (n=2). The reaction is terminated by adding 100 uL ultra-pure water, mixing well, then adding 800 uL of 100% methanol containing 200 ng/mL tolbutamide and 200 ng/mL labetalol as internal standards. Samples are then vortexed and centrifuged at 3200×g for 20 minutes. Following centrifugation, the concentration of test compound in the supernatant is determined semi-quantitatively by LC-MS/MS. The percentage of test compound remaining at the individual time points relative to the 0 hour sample is then reported. The percent remaining of test compound after incubation in blood is calculated using following equation: Percent Remaining=100×(PAR at appointed incubation time/PAR at T0 time) where PAR is the peak area ratio of analyte versus internal standard (IS).

SMILES	half-life at 2 μM (Plasma stability, dog) [h]	half-life at 2 μM (Plasma stability, human; human plasma, 2 μM, 37° C., read-out: T1/2 (human)) [h]	half-life at 2 μM (Plasma stability, cyno; cyno plasma, 2 μM, 37° C., read-out: T1/2 (cyno)) [h]	half-life at 2 μM (Plasma stability, mouse; mouse plasma, 2 μM, 37° C., read-out: T1/2 (mouse)) [h]	half-life at 2 μM (Plasma stability, rat; rat plasma, 2 μM, 37° C., read-out: T1/2 (rat)) [h]	half-life at 2 μM (Plasma stability, human; human, plasma) [h]	half-life at 2 μM (Blood stability, mouse) [h]	half-life at 2 μM (Plasma stability, cyno; plasma) [h]	half-life at 2 μM (Plasma stability, mouse; mouse, plasma) [h]	half-life at 2 μM (Plasma stability, rat; rat, plasma) [h]
CCCOc1nc(NC(=O)OCCSSC(C)CCC(=O)NCCC(=O)N(C)CC(=O)N(C)CC(=O)N(C)CC(=O)N(C)CC(=O)N(C)CC(=O)N(C)CC(=O)N(C)CC(=O)N(C)CC(=O)N(C)CC(=O)N(C)CC(=O)N[C@@H](C)C(=O)N[C@H]2CSCc3cc4cc(c3)CSC[C@H](NC(=O)[C@@H](C)NC(=O)[C@H](Cc3cccc5ccccc35)NC(=O)[C@H](CCC(=O)O)NC(=O)[C@H](CC(N)=O)NC(=O)[C@@H](C)NC2=O)C(=O)N[C@@H](CCC(=O)O)C(=O)N[C@@H](CC(=O)O)C(=O)N[C@@H](Cc2ccccc2)C(=O)N[C@@H](Cc2ccc(O)cc2)C(=O)N[C@@H](CC(=O)O)C(=O)N[C@@H](C(C)(C)C)C(=O)N[C@H](C(N)=O)CSC4)c2[nH]c(=O)n(Cc3ccc(OCCN(C)C)nc3)c2n1 (stereo partly drawn) [I-17] ({X10-βAla}-[Sar][Sar][Sar][Sar][Sar][Sar][Sar][Sar][Sar][Sar]AC[dA]NE[1Nal][dA]CEDFYD[Tle]C-NH2; linker 12-18-25 via TBMB)	< 2	< 2	< 2	< 2	< 2	–	–	–	–	–
CCOCc1nc2c(NC(=O)CCCNC(=O)OCc3ccc(NC(=O)[C@H](CCCNC(N)=O)NC(=O)[C@@H](NC(=O)Cn4cc(CCC(=O)NCCC(=O)N(C)CC(=O)N(C)CC(=O)N(C)CC(=O)N(C)CC(=O)N(C)CC(=O)N(C)CC(=O)N(C)CC(=O)N(C)CC(=O)N(C)CC(=O)N(C)CC(=O)N[C@@H](C)C(=O)N[C@H]5CSCc6cc7cc(c6)CSC[C@H](NC(=O)[C@@H](C)NC(=O)[C@H](Cc6cccc8ccccc68)NC(=O)[C@H](CCC(=O)O)NC(=O)[C@H](CC(N)=O)NC(=O)[C@@H](C)NC5=O)C(=O)N[C@@H](CCC(=O)O)C(=O)N[C@@H](CC(=O)O)C(=O)N[C@@H](Cc5ccccc5)C(=O)N[C@@H](Cc5ccc(O)cc5)C(=O)N[C@@H](CC(=O)O)C(=O)N[C@@H](C(C)(C)C)C(=O)N[C@H](C(N)=O)CSC7)nn4)C(C)C)cc3)nc3ccccc3c2n1CC(C)(C)O [I-27] ({X7-βAla}-[Sar][Sar][Sar][Sar][Sar][Sar][Sar][Sar][Sar][Sar]AC[dA]NE[1Nal][dA]CEDFYD[Tle]C-NH2; linker 12-18-25 via TBMB)	–	–	–	–	–	> 24	2 to 6	> 24	< 2	> 24
CCOCc1nc2c(NC(=O)OCc3ccc(NC(=O)[C@H](CCCNC(N)=O)NC(=O)C4(C(=O)NCCCn5cc(CCC(=O)NCCC(=O)N(C)CC(=O)N(C)CC(=O)N(C)CC(=O)N(C)CC(=O)N(C)CC(=O)N(C)CC(=O)N(C)CC(=O)N(C)CC(=O)N(C)CC(=O)N(C)CC(=O)N[C@@H](C)C(=O)N[C@H]6CSCc7cc8cc(c7)CSC[C@H](NC(=O)[C@@H](C)NC(=O)[C@H](Cc7cccc9ccccc79)NC(=O)[C@H](CCC(=O)O)NC(=O)[C@H](CC(N)=O)NC(=O)[C@@H](C)NC6=O)C(=O)N[C@@H](CCC(=O)O)C(=O)N[C@@H](CC(=O)O)C(=O)N[C@@H](Cc6ccccc6)C(=O)N[C@@H](Cc6ccc(O)cc6)C(=O)N[C@@H](CC(=O)O)C(=O)N[C@@H](C(C)(C)C)C(=O)N[C@H](C(N)=O)CSC8)nn5)CCC4)cc3)nc3ccccc3c2n1CC(C)(C)O [I-29] (X8-[X5][βAla][Sar][Sar][Sar][Sar][Sar][Sar][Sar][Sar][Sar][Sar]AC[dA]NE[1Nal][dA]CEDFYD[Tle]C-NH2; linker 14-20-27 via TBMB)	–	–	–	–	–	> 24	< 2	> 24	> 24	6 to 24
CCN(Cc1nc2c(N)nc3ccccc3c2n1CC(C)(C)O)C(=O)OCc1ccc(NC(=O)[C@H](CCCNC(N)=O)NC(=O)C2(C(=O)NCCCn3cc(CCC(=O)NCCC(=O)N(C)CC(=O)N(C)CC(=O)N(C)CC(=O)N(C)CC(=O)N(C)CC(=O)N(C)CC(=O)N(C)CC(=O)N(C)CC(=O)N(C)CC(=O)N(C)CC(=O)N[C@@H](C)C(=O)N[C@H]4CSCc5cc6cc(c5)CSC[C@H](NC(=O)[C@@H](C)NC(=O)[C@H](Cc5cccc7ccccc57)NC(=O)[C@H](CCC(=O)O)NC(=O)[C@H](CC(N)=O)NC(=O)[C@@H](C)NC4=O)C(=O)N[C@@H](CCC(=O)O)C(=O)N[C@@H](CC(=O)O)C(=O)N[C@@H](Cc4ccccc4)C(=O)N[C@@H](Cc4ccc(O)cc4)C(=O)N[C@@H](CC(=O)O)C(=O)N[C@@H](C(C)(C)C)C(=O)N[C@H](C(N)=O)CSC6)nn3)CCC2)cc1 [I-30] (X4-[X5][βAla][Sar][Sar][Sar][Sar][Sar][Sar][Sar][Sar][Sar][Sar]AC[dA]NE[1Nal][dA]CEDFYD[Tle]C-NH2; linker 14-20-27 via TBMB)	–	–	–	–	–	> 24	6 to 24	> 24	> 24	> 24
CCOCc1nc2c(NC(=O)OCCN(C)C(=O)OCc3ccc(NC(=O)[C@H](CCCNC(N)=O)NC(=O)[C@@H](NC(=O)Cn4cc(CCC(=O)NCCC(=O)N(C)CC(=O)N(C)CC(=O)N(C)CC(=O)N(C)CC(=O)N(C)CC(=O)N(C)CC(=O)N(C)CC(=O)N(C)CC(=O)N(C)CC(=O)N(C)CC(=O)N[C@@H](C)C(=O)N[C@H]5CSCc6cc7cc(c6)CSC[C@H](NC(=O)[C@@H](C)NC(=O)[C@H](Cc6cccc8ccccc68)NC(=O)[C@H](CCC(=O)O)NC(=O)[C@H](CC(N)=O)NC(=O)[C@@H](C)NC5=O)C(=O)N[C@@H](CCC(=O)O)C(=O)N[C@@H](CC(=O)O)C(=O)N[C@@H](Cc5ccccc5)C(=O)N[C@@H](Cc5ccc(O)cc5)C(=O)N[C@@H](CC(=O)O)C(=O)N[C@@H](C(C)(C)C)C(=O)N[C@H](C(N)=O)CSC7)nn4)C(C)C)cc3)nc3ccccc3c2n1CC(C)(C)O [I-32] ({X12-βAla}-[Sar][Sar][Sar][Sar][Sar][Sar][Sar][Sar][Sar][Sar]AC[dA]NE[1Nal][dA]CEDFYD[Tle]C-NH2; linker 12-18-25 via TBMB)	–	–	–	–	–	> 24	< 2	> 24	< 2	< 2
CCN(Cc1nc2c(N)nc3ccccc3c2n1CC(C)(C)O)C(=O)OCc1ccc(NC(=O)[C@H](CCCNC(N)=O)NC(=O)[C@@H](NC(=O)Cn2cc(CCC(=O)NCCC(=O)N(C)CC(=O)N(C)CC(=O)N(C)CC(=O)N(C)CC(=O)N(C)CC(=O)N(C)CC(=O)N(C)CC(=O)N(C)CC(=O)N(C)CC(=O)N(C)CC(=O)N[C@@H](C)C(=O)N[C@H]3CSCc4cc5cc(c4)CSC[C@H](NC(=O)[C@@H](C)NC(=O)[C@H](Cc4cccc6ccccc46)NC(=O)[C@H](CCC(=O)O)NC(=O)[C@H](CC(N)=O)NC(=O)[C@@H](C)NC3=O)C(=O)N[C@@H](CCC(=O)O)C(=O)N[C@@H](CC(=O)O)C(=O)N[C@@H](Cc3ccccc3)C(=O)N[C@@H](Cc3ccc(O)cc3)C(=O)N[C@@H](CC(=O)O)C(=O)N[C@@H](C(C)(C)C)C(=O)N[C@H](C(N)=O)CSC5)nn2)C(C)C)cc1 [I-33] ({X6-βAla}-[Sar][Sar][Sar][Sar][Sar][Sar][Sar][Sar][Sar][Sar]AC[dA]NE[1Nal][dA]CEDFYD[Tle]C-NH2; linker 12-18-25 via TBMB)	–	–	–	–	–	> 24	6 to 24	> 24	6 to 24	> 24
